The text below walks through data of the supplement of paper PMC12042874.

± gives the uncertainty stated by the source.

The nature of this series: amyloid nucleation score (Sup35N fusion, yeast selection) (log enrichment); library NNK1; higher = more nucleation; inactive = no reads after selection. The gist of the method: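 The nucleation score is the log enrichment of output over input reads, calculated with DiMSum and centred on the mode score of non-aggregating sequences. Sequences with under 100 input reads were excluded. Reads came from Illumina sequencing of plasmid inserts from psi-negative yeast expressing Sup35N fused to peptides of 20 random codons, induced 24 hours with 100 μM copper sulfate and grown 7 days at 30°C without adenine and uracil.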
For the substance GPDRCDRWEPRCCAKSRRER, the amyloid nucleation score is -0.061 ± 0.42.

GPQIGG came in with an amyloid nucleation score of 1.38 ± 0.17. Consider GPRYRLLLWECCRHDLSLSC, for which the amyloid nucleation score is 0.72 ± 0.43. Next, GPTYVSSFLELWRNTSHDFC: -0.402 ± 0.88; GPWGQICSDTFYLLFVWVSW: 0.133 ± 0.37. Then GQFAFNMKNSLMNVVGVILE, with “inactive”; and GQLSCLSFNVVTGRYKAIAF, with 0.629 ± 0.38; and GQYVWADLINVVRLWVFVSR, with 0.503 ± 0.87.

Regarding GRATMGRGRCNLFGHKGHGH, the amyloid nucleation score is 0.046 ± 0.55. Turning to GRFLHINS, the amyloid nucleation score result is “inactive”. As for GRILYEAYTPVERVYAWCSA, the amyloid nucleation score result was “inactive”. In the case of GRIQCHYGLSVYNGFESGTG, the amyloid nucleation score was 0.279 ± 0.83.

For GRKRYKRATHH, the amyloid nucleation score was -0.593 ± 1.5. Next, GRMNKNYA: “inactive”. Take GRNWLVGCVAQWHWSSLSWS: the amyloid nucleation score was -1.11 ± 2.7. In the case of GRPNATIKNLVIFSEMFYSL, the amyloid nucleation score turned out to be 4.68 ± 0.063.

Regarding GRVDWMCEYLKLMRSVGWSR, the amyloid nucleation score came out at 0.545 ± 0.41. As to GRYWSCEATRLCKYFGCTMR, the amyloid nucleation score was -0.212 ± 0.48. Then GSARYCSYCWRTSDITWIIH, with 1.71 ± 0.13; and GSCGKGHLSPRALLFTHSWQ, with -0.446 ± 0.61. For the substance GSCLISRT, the amyloid nucleation score was 1.02 ± 0.5.

As to GSCVCECGWIFTARGVRVFK, the amyloid nucleation score was -0.346 ± 0.42. Next, GSDQLSTT: -0.338 ± 0.43; GSFLRGPHPKNY: 0.853 ± 0.66. Consider GSGNVRL, for which the amyloid nucleation score was -1.61 ± 2.4. Then GSGVDSRVSCKKFILSLVGA, with -0.39 ± 1.7; and GSGWEGSTVRFSQASFGELW, with 0.328 ± 0.97. In the case of GSHSGVFRVIKYQILFEVGM, the amyloid nucleation score result was “inactive”. Next, GSIWED: -0.778 ± 0.64; GSKSFPSSGSSMQAAGTSSG: -0.069 ± 0.36; GSLLICEWLRFSRGRGVRSY: 1.11 ± 0.79. Take GSMNVECDRDRDRYNVCHYR: the amyloid nucleation score was -0.569 ± 0.39.

Consider GSRRDRISLRSQRVCILEKG, for which the amyloid nucleation score came out at 1.95 ± 0.6. Next, GSSWYNNPVQGILGGYNL: -0.348 ± 0.47; GSTFVGAIKQPIVCWIESGN: -1.32 ± 1.2.

As for GSTTSLRFTVLQTFLFSCNN, the amyloid nucleation score is -0.663 ± 0.8. As to GSTYR, the amyloid nucleation score is -0.482 ± 0.51. In the case of GTCPSRPVSV, the amyloid nucleation score is -0.139 ± 0.47. Turning to GTGSSAVDVFSGLMCGTDVL, the amyloid nucleation score was -0.145 ± 0.46. For the substance GTHTEYSQKTVLVDIFTELM, the amyloid nucleation score entry was “inactive”. Then GTLGSWSIIISLIRHSECLC, with -0.659 ± 0.46; and GTLVLYFCGVC, with 6.62 ± 0.059. Next, GTMDMSQGYSQVCLDFIVHG: -0.626 ± 1.2; GTRCMALALGLHIYIFIRGG: -0.161 ± 0.46. GTRQSDHYCVSTGLCV had an amyloid nucleation score of 0.352 ± 0.36.

On to GTRWSHTWWPGTNLMLCVQG, for which the amyloid nucleation score was -0.453 ± 0.26. Next, GTSMRFGGGVIF: -0.721 ± 0.49; GTVSGYYVRVGNFAMYYQAY: 1.91 ± 0.17.

In the case of GVADMAVRGQCSHYSVAWST, the amyloid nucleation score is -1.07 ± 0.82. For the substance GVCWRDYGLEAGTGAQVQQC, the amyloid nucleation score came out at 3.03 ± 0.15. Next, GVDHIGLGTEEYNQSYLGSG: -0.505 ± 0.53; GVHRWVRSARLEAVHFGAGW: 1.45 ± 0.84; GVLSICGML: -0.401 ± 0.31. Next, GVRYQALFLSAVL: 0.09 ± 0.21. Take GVSKCQDEYSGLGNRNYM: the amyloid nucleation score is -1.28 ± 0.59.

The substance GVSQNKCMPVWCVR yielded an amyloid nucleation score of 0.504 ± 0.38. In the case of GVTYNLK, the amyloid nucleation score is -0.685 ± 1. Then GVVFPWSVLMFSCSSCLAVP, with 0.605 ± 0.61. On to GVVGVNSADLFNGKIVIKFS, for which the amyloid nucleation score was 1.81 ± 0.2. Next, GWAGRVCNRGKTWDIDLRQR: -0.7 ± 0.34; GWCFVSRDLVNYLMCVTAGV: -1.02 ± 0.88. Then GWSLNQVVCCALCSVSRRKR, with 0.553 ± 0.48; and GWSSFWGPLVCARVWRRIGE, with 0.433 ± 0.54; and GYIVYDIMYAIFYKQTVYLI, with “inactive”. GYIYLFGARFVVEEFGIVFW registered an amyloid nucleation score of 0.678 ± 0.93.

Turning to GYKMAYNFCDEKEGLNWRVG, the amyloid nucleation score is -0.257 ± 0.52.

Turning to GYYIEMLYFMEALDIS, the amyloid nucleation score result is “inactive”. Next, HAAYTEVFILLLNDNILPHL: -0.393 ± 0.45; HAFSSCDYSHYVFGMRPFDL: 1.51 ± 0.15. Next, HAMISWDISNVCVYWHMCPW: 0.12 ± 0.33; HCVTFACC: 0.523 ± 0.53; HDSLKFVKQSFFCPEVYIPG: -0.596 ± 0.47. Then HEFYSVLMGHFVWLQPWETR, with 0.839 ± 1.1; and HEGPCKRNCTGVLLRSARRH, with -0.049 ± 0.26; and HEIKIRHFIRMTGSGSYQSL, with 0.176 ± 0.29.

As to HERFLRIQRVHREKKCKVCL, the amyloid nucleation score is 0.267 ± 0.77.

For HEYNCRG, the amyloid nucleation score entry is “inactive”. Then HFCKYSQNIELRQALGCYFW, with 6.16 ± 0.065. Then HFEQGYAHSSYMWVLGRPMW, with 2.86 ± 0.087.

As to HGIFEGRITVILKGY, the amyloid nucleation score was 4.05 ± 0.15. HGLGALYTSVRRARLGFFYC displayed an amyloid nucleation score of 4.23 ± 0.15.

Consider HGMWNTQVTVTWYTSADLFV, for which the amyloid nucleation score is -0.093 ± 0.52. Next, HGRIGLVWESGKCMTYLREV: 0.191 ± 0.37.

In the case of HGVLCSWSRLKTRFDQNGIS, the amyloid nucleation score was found to be 0.616 ± 1.2.

In turn, HHIRCRVRIQNNPS gave an amyloid nucleation score of 0.368 ± 0.55. The substance HHLTRTTPYPTSTWLAQLLS displayed an amyloid nucleation score of 0.994 ± 0.63. Next, HICTTFCTSMFSRTSQWSGG: 0.673 ± 0.3; HIDWSNVSYGDDRYGSGDCR: 0.142 ± 0.19; HIESNYRSERTDGWYICRSG: 1.11 ± 0.2.

As to HIFHCGNRRFHTIKM, the amyloid nucleation score result is “inactive”. For HIKHSMMFGTYTK, the amyloid nucleation score is -1.2 ± 0.72. In turn, HIMEIVESFTIETRMIKGCV gave an amyloid nucleation score of 0.874 ± 0.53. HIQLIYVTIVLESRLSWWRI displayed an amyloid nucleation score of 0.934 ± 0.53. Regarding HIWLVVKKFPNIEHSIMIGS, the amyloid nucleation score was -0.334 ± 1.2. Next, HKCDSVKVGGSCNKTAYSRC: 0.787 ± 0.59.

Consider HKFSNELLL, for which the amyloid nucleation score was -0.145 ± 0.76.

HKLDQLKASRLPSLVNWRVG had an amyloid nucleation score of 1.12 ± 0.7. Then HKLFNALNPKKG, with 0.532 ± 1.2.

As for HKRLVGSYWFIFYSVTRYQE, the amyloid nucleation score was -0.685 ± 1.7. For HKSIMAYRN, the amyloid nucleation score came out at 0.677 ± 0.68. The substance HLCFIADGQLRTVVVELFPI displayed an amyloid nucleation score of 0.576 ± 0.42. Next, HLDGSVISNSMVNIVFLSLV: 5.71 ± 0.072. Next, HLICRFVHVNHCLVQQPKGS: 1.37 ± 0.33; HLLNYIVGL: 0.294 ± 0.69. Next, HLRFYAYRGMGRPNFFLCFE: 0.183 ± 0.38. Take HLRIGLNDVSLIISLTDKRT: the amyloid nucleation score is -1.07 ± 0.47. With HMFIFPYGAFMMERLFSGAI, the amyloid nucleation score stood at 0.198 ± 0.97. Next, HMVFC: -0.446 ± 0.33; HNFLLYVSSYSFFHRLFMLH: 0.149 ± 0.46; HNHRRQDGIRNA: 1.12 ± 0.14. Then HNRMMMRADVTAVDTRYFTS, with -1.57 ± 1.3; and HNSNECYYF, with -1.06 ± 2.4. Then HPVIADDLSYAAVIKRYLGV, with 0.267 ± 0.41; and HQIFIWVVGLGTFETPRNHK, with 5.96 ± 0.066; and HRNRFYVVLYRNLDLWL, with -0.197 ± 0.23. Regarding HRRRYAVNFSVEIMIRALG, the amyloid nucleation score is -1 ± 1.6. In turn, HRTFA had an amyloid nucleation score of 0.465 ± 0.35. As for HRVVSVRRCMKHPLSMERVA, the amyloid nucleation score is 0.447 ± 0.51. In turn, HSEIHVALYCASVML had an amyloid nucleation score of 3.38 ± 0.097.

HSGFNVAAYFTSMN registered an amyloid nucleation score of 0.467 ± 0.9. In the case of HSGSDSAITVVSLGIRE, the amyloid nucleation score is -0.19 ± 0.91. Next, HSGTVVYNMEMKKINSCYLL: 2.58 ± 0.1; HSHRYNILQASWKA: 0.17 ± 0.38.

As to HSKRYCGACDLGYLCYRCNI, the amyloid nucleation score is -0.333 ± 0.24. Then HSLEDMKHRLGLGGWSSCKV, with 0.183 ± 0.57.

HSNIRMCKAECSRGELH: the amyloid nucleation score was 0.812 ± 0.61.

For HSQLLGMPFTSSVDS, the amyloid nucleation score worked out at 0.635 ± 0.97. HSVNACLTGRKGAPLRDKPG displayed an amyloid nucleation score of 0.166 ± 0.78. Then HTHESNRPHYYCGADCLPKD, with 2.71 ± 0.14; and HTQDYEEFIFCLM, with “inactive”; and HTTSICVRELPDQEVWTAVN, with 0.109 ± 0.54. Next, HTYSWKISDSSYPTFPELFW: 0.121 ± 0.39; HVFPHLWKYYCMAVALVFLR: 1.38 ± 0.61; HVFSLKRPDGCRRR: 0.711 ± 0.38. Next, HVHTDSIDRVWRVLFTIKSK: 0.776 ± 0.61; HVLWGIVLVVIFFW: -0.151 ± 0.29; HVQEDLNAVGHPLEFEMTVR: -0.979 ± 1.9.

Consider HVSVRSLRAVGVLRRRCGNG, for which the amyloid nucleation score result was “inactive”.
